In patent US20260193352A1 (published 2026):

Molecular target: T1, cynomolgus monkey PD-1 Fc fusion (cynomolgus monkey, UniProt B0LAJ3 25-170)
T1 construct: also called Cyno PD-1
Experiment: SPR

T1 sequence (B0LAJ3 entry or part of it limits assumed, form in doubt): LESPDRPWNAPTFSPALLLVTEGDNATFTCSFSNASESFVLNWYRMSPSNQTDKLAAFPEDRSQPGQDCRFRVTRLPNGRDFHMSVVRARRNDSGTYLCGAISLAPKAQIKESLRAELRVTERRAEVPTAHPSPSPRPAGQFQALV

- fold difference in KD (cynomolgus monkey PD-1 against human PD-1): < 2 fold
B1: PD-1-binding agent (comprising SEQ ID NOs: 1 and 2) (antibody, V domains shown)
VH: EVQLLESGGGLVQPGGSLRLSCAASGFTFSSYDMSWVRQAPGKGLEWVSTISGGGSYTYYQDSVKGRFTISRDNSKNTLYLQMNSLRAEDTAVYYCASPYYAMDYWGQGTTVTVSS
VL: DIQLTQSPSFLSAYVGDRVTITCKASQDVGTAVAWYQQKPGKAPKLLIYWASTLHTGVPSRFSGSGSGTEFTLTISSLQPEDFATYYCQHYSSYPWTFGQGTKLEIKR
